Assays:
GLP-1R in pancreas = target: T1, GLP-1R in pancreas (Mus musculus, UniProt O35659); experiment: Dynamic PET/CT imaging of ^64Cu-labeled peptides in normal mice; details: mouse, in vivo
T1 sequence (O35659 22-463): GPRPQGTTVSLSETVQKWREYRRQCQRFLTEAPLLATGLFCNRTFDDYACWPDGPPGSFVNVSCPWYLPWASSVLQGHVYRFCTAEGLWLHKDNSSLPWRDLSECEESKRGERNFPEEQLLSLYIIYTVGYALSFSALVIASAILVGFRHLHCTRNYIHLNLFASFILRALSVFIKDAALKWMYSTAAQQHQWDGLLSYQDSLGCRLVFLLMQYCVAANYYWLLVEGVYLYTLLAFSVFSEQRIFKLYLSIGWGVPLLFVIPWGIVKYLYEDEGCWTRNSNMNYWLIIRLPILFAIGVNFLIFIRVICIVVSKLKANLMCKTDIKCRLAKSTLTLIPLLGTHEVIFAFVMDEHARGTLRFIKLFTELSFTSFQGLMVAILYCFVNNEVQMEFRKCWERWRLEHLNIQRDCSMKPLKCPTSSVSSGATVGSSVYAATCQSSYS
Experimental: Dynamic PET/CT scans were performed on a Siemens Inveon PET-CT multimodality system using normal male BABL/c mice (n=3 per peptide). Post-PET biodistribution was performed to verify the imaging findings.
In addition, D-Ala^8 was also introduced to prevent the degradation by DPP-IV.
FIG. 9 are graphs that show a comparison of contrast in pancreatic, liver and kidney microPET scans. […] Quantitative analysis based on microPET/CT 0-60 min dynamic scans, animal model: Normal BABL/c mice at 6-8 wks.

in vivo = experiment: in vivo; set-up: species or system Sprague-Dawley rats; details: Sprague-Dawley, rat, iv, total radioactivity
Experimental: Given this encouraging in vitro result, the tissue distribution of both conjugates in normal Sprague-Dawley rats was examined. […] The radiolabeled compounds were diluted with saline and be injected into rats (n=4 at each time point) via the tail vein. The animal number at each time point was chosen for statistical analysis. […] At the selected post-injection time points, animals were sacrificed, and organs of interest removed, weighed, and counted. The percent injected dose per gram (% ID/g) and percent injected dose per organ (% ID/organ) was calculated by comparison to a weighed, counted standard. Pharmacokinetic parameters were estimated by using either one- or two-compartment model.

CC[C@H](C)[C@H](NC(=O)[C@H](Cc1ccccc1)NC(=O)[C@H](CCC(=O)O)NC(=O)[C@H](CCCCN)NC(=O)[C@H](C)NC(=O)[C@H](C)NC(=O)[C@H](CCC(N)=O)NC(=O)CNC(=O)[C@H](CCC(=O)O)NC(=O)[C@H](CC(C)C)NC(=O)[C@H](Cc1ccc(O)cc1)NC(=O)[C@H](CO)NC(=O)[C@H](CO)NC(=O)[C@@H](NC(=O)[C@H](CC(=O)O)NC(=O)[C@H](CO)NC(=O)[C@@H](NC(=O)[C@H](Cc1ccccc1)NC(=O)[C@@H](NC(=O)CNC(=O)[C@H](CCC(=O)O)NC(=O)[C@@H](C)NC(=O)[C@@H](N)Cc1c[nH]cn1)[C@@H](C)O)[C@@H](C)O)C(C)C)C(=O)N[C@@H](C)C(=O)N[C@@H](Cc1c[nH]c2ccccc12)C(=O)N[C@@H](CC(C)C)C(=O)N[C@H](C(=O)N[C@@H](CCCCN)C(=O)NCC(=O)N[C@@H](CCCNC(=N)N)C(=O)NCCCCCC(=O)N[C@@H](CSC1CC(=O)N(CCNC(=O)CN2CCN(CC(=O)O)CCN(CC(=O)O)CCN(CC(=O)O)CC2)C1=O)C(N)=O)C(C)C (stereo partly drawn) (64Cu complex, metal not drawn) [D-GLP-1, [D-Ala^8]GLP-1-Ahx-Cys]
clearance from the pancreas (GLP-1R in pancreas): < 10 min
tissue uptake at 20 min (in vivo; % ID/g blood): 0.91 ± 0.39 %ID/g
tissue uptake at 1 h (in vivo; % ID/g blood): 0.41 ± 0.07 %ID/g
tissue uptake at 4 h (in vivo; % ID/g blood): 0.45 ± 0.02 %ID/g
tissue uptake at 24 h (in vivo; % ID/g blood): 0.14 ± 0.08 %ID/g
tissue uptake at 20 min (in vivo; % ID/g fat): 0.44 ± 0.6 %ID/g
tissue uptake at 1 h (in vivo; % ID/g fat): 0.28 ± 0.4 %ID/g
tissue uptake at 4 h (in vivo; % ID/g fat): 0.96 ± 0.88 %ID/g
tissue uptake at 24 h (in vivo; % ID/g fat): 0.78 ± 0.14 %ID/g
tissue uptake at 20 min (in vivo; % ID/g heart): 0.64 ± 0.16 %ID/g
tissue uptake at 1 h (in vivo; % ID/g heart): 0.46 ± 0.21 %ID/g
tissue uptake at 4 h (in vivo; % ID/g heart): 0.15 ± 0.09 %ID/g
tissue uptake at 24 h (in vivo; % ID/g heart): 0.04 ± 0.05 %ID/g
tissue uptake at 20 min (in vivo; % ID/g kidney): 19.6 ± 0.91 %ID/g
tissue uptake at 1 h (in vivo; % ID/g kidney): 28.2 ± 5.83 %ID/g
tissue uptake at 4 h (in vivo; % ID/g kidney): 30.7 ± 9.53 %ID/g
tissue uptake at 24 h (in vivo; % ID/g kidney): 46.1 ± 10.9 %ID/g
tissue uptake at 20 min (in vivo; % ID/g large int): 0.45 ± 0.2 %ID/g
tissue uptake at 1 h (in vivo; % ID/g large int): 0.67 ± 0.7 %ID/g
tissue uptake at 4 h (in vivo; % ID/g large int): 0.77 ± 0.18 %ID/g
tissue uptake at 24 h (in vivo; % ID/g large int): 2.01 ± 0.02 %ID/g
tissue uptake at 20 min (in vivo; % ID/g liver): 2.69 ± 1.16 %ID/g
tissue uptake at 1 h (in vivo; % ID/g liver): 1.17 ± 0.45 %ID/g
tissue uptake at 4 h (in vivo; % ID/g liver): 1.56 ± 0.14 %ID/g
tissue uptake at 24 h (in vivo; % ID/g liver): 2.26 ± 0.16 %ID/g
tissue uptake at 20 min (in vivo; % ID/g lung): 4.03 ± 1.64 %ID/g
tissue uptake at 1 h (in vivo; % ID/g lung): 0.91 ± 0.12 %ID/g
tissue uptake at 4 h (in vivo; % ID/g lung): 0.77 ± 0.18 %ID/g
tissue uptake at 24 h (in vivo; % ID/g lung): 1.21 ± 0.3 %ID/g
tissue uptake at 20 min (in vivo; % ID/g muscle): 0.3 ± 0.15 %ID/g
tissue uptake at 1 h (in vivo; % ID/g muscle): 0.63 ± 0.05 %ID/g
tissue uptake at 4 h (in vivo; % ID/g muscle): 0.11 ± 0.13 %ID/g
tissue uptake at 24 h (in vivo; % ID/g muscle): 0.39 ± 0.29 %ID/g
tissue uptake at 20 min (in vivo; % ID/g pancreas): 3.58 ± 0.56 %ID/g
tissue uptake at 1 h (in vivo; % ID/g pancreas): 2.19 ± 0.98 %ID/g
tissue uptake at 4 h (in vivo; % ID/g pancreas): 1.18 ± 0.12 %ID/g
tissue uptake at 24 h (in vivo; % ID/g pancreas): 0.99 ± 0.05 %ID/g
tissue uptake at 20 min (in vivo; % ID/g small int): 1.07 ± 0.73 %ID/g
tissue uptake at 1 h (in vivo; % ID/g small int): 1.02 ± 0.75 %ID/g
tissue uptake at 4 h (in vivo; % ID/g small int): 0.5 ± 0.25 %ID/g
tissue uptake at 24 h (in vivo; % ID/g small int): 0.91 ± 0.31 %ID/g
tissue uptake at 20 min (in vivo; % ID/g spleen): 0.22 ± 0.05 %ID/g
tissue uptake at 1 h (in vivo; % ID/g spleen): 0.23 ± 0.05 %ID/g
tissue uptake at 4 h (in vivo; % ID/g spleen): 0.26 ± 0.2 %ID/g
tissue uptake at 24 h (in vivo; % ID/g spleen): 0.52 ± 0.18 %ID/g
tissue uptake at 20 min (in vivo; % ID/g stomach): 1.02 ± 0.51 %ID/g
tissue uptake at 1 h (in vivo; % ID/g stomach): 0.49 ± 0.31 %ID/g
tissue uptake at 4 h (in vivo; % ID/g stomach): 0.23 ± 0.07 %ID/g
tissue uptake at 24 h (in vivo; % ID/g stomach): 0.25 ± 0.17 %ID/g
